Assay [1] has as its target FMNL1N (FMNL1 2–385, GBD–FH3) (human) (UniProt O95466). Put plainly: ITC; GppNHp-loaded GTPase at 500 μM injected from the syringe into 50 μM FMNL in the cell; 20 mM Tris/HCl pH 8, 150 mM NaCl, 5 mM MgCl2, 1 mM DTE, 298 K; MicroCal iTC200. On the technique in general: ITC needs no label: the signal is the heat of the interaction.
Assay [2] addresses FMNL1NCC (FMNL1 1–458, GBD-FH3-CC) (human) (UniProt O95466). Described as above.
Target sequence in this assay (O95466 1-458): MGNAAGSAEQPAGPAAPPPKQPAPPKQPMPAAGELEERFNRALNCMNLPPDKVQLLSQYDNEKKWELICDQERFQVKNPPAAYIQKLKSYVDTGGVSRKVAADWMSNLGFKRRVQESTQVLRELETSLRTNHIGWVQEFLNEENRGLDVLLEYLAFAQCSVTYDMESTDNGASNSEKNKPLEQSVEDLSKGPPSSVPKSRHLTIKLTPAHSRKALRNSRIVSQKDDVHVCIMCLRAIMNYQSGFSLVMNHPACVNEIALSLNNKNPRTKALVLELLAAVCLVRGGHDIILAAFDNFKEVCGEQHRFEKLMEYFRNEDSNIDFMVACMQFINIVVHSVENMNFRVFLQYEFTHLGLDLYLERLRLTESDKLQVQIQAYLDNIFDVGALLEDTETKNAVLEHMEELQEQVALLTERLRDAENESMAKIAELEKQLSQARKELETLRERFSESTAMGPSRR
For assay [3], the target named is FMNL2N(S171DD) (residues 1–379) (human) (UniProt Q96PY5). Described as above.
Assay [4] concerns the target FMNL1NCC (FMNL1 1–458, GBD-FH3-CC) (human) (UniProt O95466). As to the kind of experiment: SEC; analytical gel filtration, Superdex S200 (10/300 GL), typically 100 μg of each protein, 20 mM Tris/HCl pH 8.0, 150 mM NaCl, 1 mM DTE (2.5 mM MgCl2 with Rho GTPases), 0.5 ml/min, 293 K.
The target in assay [5] is FMNL2 1–489 (N-terminal FMNL2 construct including the coiled coil domain) (human) (UniProt Q96PY5). Described as above.

For orientation: Kd means the concentration at which binding is half-saturated. One may read the stoichiometry N as a count of units in the complex or per binding partner.

Cdc42 (1–179), sequence (P60953 1-179): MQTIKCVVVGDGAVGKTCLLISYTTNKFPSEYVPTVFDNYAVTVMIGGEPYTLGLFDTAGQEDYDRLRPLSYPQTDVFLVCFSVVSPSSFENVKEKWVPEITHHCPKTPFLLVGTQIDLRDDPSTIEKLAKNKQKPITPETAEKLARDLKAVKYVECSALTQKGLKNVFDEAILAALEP
FMNL1N (FMNL1 2–385, GBD–FH3) (human), sequence (O95466 2-385): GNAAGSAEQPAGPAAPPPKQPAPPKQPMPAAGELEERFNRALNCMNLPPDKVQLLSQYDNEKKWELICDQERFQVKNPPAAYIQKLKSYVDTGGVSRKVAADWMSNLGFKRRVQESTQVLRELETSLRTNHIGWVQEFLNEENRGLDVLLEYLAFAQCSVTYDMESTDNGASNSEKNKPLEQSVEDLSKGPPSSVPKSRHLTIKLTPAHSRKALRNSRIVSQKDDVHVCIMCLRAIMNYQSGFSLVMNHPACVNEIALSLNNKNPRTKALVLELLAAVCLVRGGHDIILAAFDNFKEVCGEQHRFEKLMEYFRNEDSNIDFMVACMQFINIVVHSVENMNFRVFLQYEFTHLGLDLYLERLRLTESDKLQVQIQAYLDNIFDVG
FMNL1NCC (FMNL1 1–458, GBD-FH3-CC), sequence (O95466 1-458): as the sequence (O95466 1-458) above

As to “Cdc42 (1–179) (from UniProt P60953 1-179) (domain or fragment)”, in assay [1], the dissociation constant (Kd) is 6130 nM, the dH was -5.08 kcal/mol and the stoichiometry N was 0.28. In assay [2], the Kd was determined as 2550 nM, the dH is -5.48 kcal/mol and the stoichiometry N was 0.37. In assay [3], the Kd was 790 nM, the dH is -4.06 kcal/mol and the stoichiometry N is 1.05.
Substance “FMNL1NCC (FMNL1 1–458, GBD-FH3-CC) (from UniProt O95466 1-458) (domain or fragment)” yielded a stoichiometry N in assay [4] of 2.
Consider “FMNL2 1–489 (N-terminal FMNL2 construct including the coiled coil domain) (from UniProt Q96PY5 1-489) (domain or fragment)”, for which the stoichiometry N in assay [5] was 2.

Values taken from paper PMC4432619.
